Test: soluble on expression in E. coli; label from the status in PepcDB or PDB records
For “MYRQGTNQSVCSDADEFTPEELQEFAQAFKLFDKDGNNTMNIKELGEAMRMLGLNPTEEELLNMVNEYDVDGNGKIDFGEFCKMMKEMNKETDQELIRLAFKVFDKDGNGYITAQEFKHFMTTMGERFSEEEVDEIIREVDKDGDEQIDLDEFVNMVAPIVSDGTKTDPFLEPTASTNPPTK”, the “soluble on expression in E. coli” value was “not soluble”.
With “MYRRLASGLYQTSQRRIAQVQPKSVFVPETIVTTLPNGFRVATENTGGSTATIGVFIDAGSRYENEKNNGTAHFLEHMAFKGTPRRTRMGLELEVENIGAHLNAYTSRESTTYYAKCFTEKLDQSVDILSDILLNSSLATKDIEAERGVIIREMEEVAQNFQEVVFDILHADVFKGNPLSYTILGPIELIQTINKNDLQGYINTHYRSGRMVLAAAGGVNHDAIVKMAEKYFGELKHGDSSTEFVPATYSPCEVRGDIPDLPMLYGAMVVEGVSWTHEDNLALMVANTLMGEYDRMRGFGVNAPTRLAEKLSQDAGIEVFQSFNTCYKETGLVGTYFVAAPESIDNLIDSVLQQWVWLANNIDEAAVDRAKRSLHTNLLLMLDGSTPVCEDIGRQLLCYGRRIPTPELHARIESITVQQLRDVCRRVFLEGQVSAAVVGKTQYWPVNEEIHGRLIRMQ” the “soluble on expression in E. coli” value was “not soluble”.
With “MYSIIRPFLLHAVTSVHAGSGSEIGLVDLPIQREKHTGFPKIESSSLKGALRYHMTQALPDETNKLELIFGADKGQESVTQASAIALSDARVLLFPVKSLRGVFAWITCPHVLERWNQEMSVHQEMKGKGEGFQSLPVPGPNTVSADRLIVADGRIILEEYTFPVTVSPEAKQLAEQLSAIIGESSRLRVTDRLVILSDDDFTDFVKLSTEVNARIRISPETGTVDSGALWYEENVPPETFFYSFLYIGHVRGKGVDGLATAEEIERYLVDERKFPSVFQLGGNSTLGRGMMRTIWL” the “soluble on expression in E. coli” value was “not soluble”.
With “MYTLNWQPPYDWSWMLGFLAARAVSSVETVADSYYARSLAVGEYRGVVTAIPDIARHTLHINLSAGLEPVAAECLAKMSRLFDLQCNPQIVNGALGRLGAARPGLRLPGCVDAFEQGVRAILGQLVSVAMAAKLTARVAQLYGERLDDFPEYICFPTPQRLAAADPQALKALGMPLKRAEALIHLANAALEGTLPMTIPGDVEQAMKTLQTFPGIGRWTANYFALRGWQAKDVFLPDDYLIKQRFPGMTPAQIRRYAERWKPWRSYALLHIWYTEGWQPDEA” the “soluble on expression in E. coli” value was “soluble”.
With “MYVVKSANDGGNSLFLSSSDIVNQLSKTETGKKHLKTLTGNLYPFKTPASFDKKQGVRWGNILSVNTQMIRFRSDCIYKGIEENRNKVSKEMVLALDYLINVIKNASDIQEFSAQDDGLIIIDNVNGLHARTDYTDKNRHYIRARITV” the “soluble on expression in E. coli” value was “not soluble”.
For “NAVNWGMREYKIYPYELLLVTTRGRNRLPKDVDRTRLERHLSQEEFYQVFGMTISEFDRLALWKRNELKKQARLF”, the “soluble on expression in E. coli” value was “soluble”.
In the case of “NDAIPTIFIHGYRGTDRSLHGMIRRFDQKYNWGTESLTVNVSPDGSISTTGTYSKNEKNPLINIVFEDNRATLPQQSMWTKKIMSYLQKNYDIKKFNAIGHSMGGGAWVSYLASYEKNKSYPQVNKIVFLAVPFYPEEYVNGDQQVDIKNANNVHAKFAQKMAKVLPDNTEIMIIGGDLEDGSNSDGEVKLNSVLYGQKLFAHQKVITHVIKGPKATHSSMHESTVVDKYVGQFLWG”, the “soluble on expression in E. coli” value is reported as “not soluble”.
With NELDVPEQVDKLIQQATSIERLCQHYIGWCPFW the “soluble on expression in E. coli” value was “soluble”.
With “NGHYMDQFTYAERATDWRGNNNIANSIFSQMQLEDHPIPSWVVMSPGTGGTSATIGRFIRYQKYDTKLCVVDPENSVFYDAFQSGNNELKGNTGSKIEGIGRPRVEPSFIAGVVDEMRKIPDAASIATAHWVSQLIGRKVGASTGTNLYGVLQLACEMKQRGETGSIVTLLCDSGERYLDTYYDLAWVKENIGDIQPYLTQLEVIQAKGCVEPACCGPITA” the “soluble on expression in E. coli” value was “not soluble”.
In the case of “NGKLFLVGTPIGNLKDITLRALETLQNCDVIAAEDTRQSLKLLNHFDIKKPLISYHKFNENNRSSELMDMVREGKKVALVTDAGMPGISDPGSVIVEKFIENNLEFEVIPG”, the “soluble on expression in E. coli” value is reported as “soluble”.
In the case of “NGNPIPMGYSQAVENNVQITNFALFSAAAIGVELCLFDEQNQETRLPMVRTENVWHLAVTGVKTGTEYAFRIHGEFANPQKLILDPYAKAVNGKPDLSSEESRSWFLLSDNRDNAHLAPRAVVIS”, the “soluble on expression in E. coli” value is reported as “not soluble”.
In the case of “NIDLDVQNMAQNALKFGYDEIVKRDKDANLSTLNGAMVVVNHQSGDVLALVGGVDYEKSNYNRATQSMRQPGSSFKPFVYQVAINLGYSPMSEIADISRIFEGGAGNNEDWKPKNEGGKFLGLITLKEALTRSRNLATINLALDMGLDVLYSKLMEFGFKDIPPNLSIVLGSFGISPLEYSKFYTMFGNYGTIKDPQIIRQVQDKTGKTIMEFNSNERKVSDEAQSFLVLDMMRNVVEKGTGRNARVKDIEIAGKTGTTNKSVDAWFCGLTPEIEAIIWYGNDNNKPMRYTEGGARTAAPVFREFLTQYIEKFPDTTR”, the “soluble on expression in E. coli” value is reported as “not soluble”.
In the case of “NIQGRTARQTDYLFQIKKHDITFGIGPAGTGKTYLAVACAVDALERELVSRVILVRPAVEAGERLGFLPGDMVQKVDPYLRPLYDALYDLMGFEKVSKHFERGIIEIAPLAFMRGRTLNQSFIILDEAQNTTAEQMKMFLTRIGFGSKAVITGDITQIDLPKHQKSGLVEAERVLKNVNGIAFTRFRTEDVVRHPLVQRIVDAYEKYAPDK”, the “soluble on expression in E. coli” value is reported as “not soluble”.
With “NKYNKIANELIKIIGEDNIISITHCATRLRVMVKDREIINDKKVEKVDEVKGVFFTSGQYQIILGTGIVNKVYAEVEKMGLKTLSKKEQDELVKNNE” the “soluble on expression in E. coli” value was “soluble”.
For “NLEGKGCSVLDQAGLAQKFGPVVSHIRIAARQEDLFAVRIAAGEAHLLLGCDLLVAAGPDAIAKLDSKISHAVINSQQTPTAEFTRNPDAVFPAEAMKQTIIDAVGADKTHFVEATSLATRLMGDSIASNLFMLGYAFQLGLIPLTSAAIEKAIELNGVAVNLNQQAFLWGRRTAHDPAAVEAFVNPQP”, the “soluble on expression in E. coli” value was “not soluble”.
With “NLSASNRALPVLTLFTKAPCPLCDEAKEVLQPYKDRFILQEVDITLPENSTWYERYKFDIPVFHLNGQFLMMHRVNTSKLEKQLRKL” the “soluble on expression in E. coli” value was “soluble”.
In the case of “NLYHTPIFSVDREYEWLEKRHDKMLFAFDIPIHLTRRVLLVAGEAHTGGTMEAFTRYLRSIGVGEIKTCVFYKQSICTQHIDFWGMEGENTILMPWQNAQSIRDSLSKAQANQLKKIQRQRDC”, the “soluble on expression in E. coli” value is reported as “not soluble”.
With “NPDGLSQEQLEHRERSLQTLRDIQRMLFPDEKEFTGAQSGGPQQNP” the “soluble on expression in E. coli” value was “soluble”.
In the case of “NSESKSTPKRLHVSNIPFRFRDPDLRQMFGQFGKILDVEIIFNERGSKGFGFVTFENSADADRAREKLHGTVVEGRKIEVNNATARVMTN”, the “soluble on expression in E. coli” value is reported as “soluble”.
In the case of “NSFFKTGWKRFYLKWYGQDHPSAQALCPYTTELLKQFPNIKAAMFTALPPGSRLVRHRDPFAGSVRYHLGLITPNDDRCYIDVDGQQYSWRDGEAVIFDETYLHYAENTTDQNRIILFCDVERPMWFWPARVVNRIVSRVLVGAANSPN”, the “soluble on expression in E. coli” value is reported as “not soluble”.
In the case of “NTKPENDLERAKRKNERAKARCVGITFETRPDYAREEHIREMLRFGGTKVELGVQSLYDDVLERIKRGHGVKEVAEATRLLRDSAFKVGYHIMPGLPGSSFERDLRMFRELFENDSFKPDYLKIYPTLVVEGTELYEMWKRGEYEPYTTEEVVELIVMAKRRFPE”, the “soluble on expression in E. coli” value is reported as “not soluble”.
With “NTRGMALFADGGLIATKPYSASGSYINKMSDYCASCAYQVKLKSGEKACPLNSLYWRFMLKHRDRLANNPRIGMLYKTWDKMTSDSQQAILSTADAYLSQIESL” the “soluble on expression in E. coli” value was “not soluble”.
In the case of “NVVETKALFVSTNDLARRLQKLNNEQKIQSNRLKTTIENIPSAILMIDRNGKIVVANKAYYEQFNISHNIEQVGYHGYVNTEIEQLILESFKVEKPIYEQLEVAINQVHAKYFDISCVPILTRSQKSLQGILVVMHD”, the “soluble on expression in E. coli” value is reported as “not soluble”.
For “NYRSRAAYKLIELDNKYLFLKKNKIILDIGCYPGSWCQVILERTKNYKNKIIGIDKKIMDPIPNVYFIQGEIGKDNMNNIKNINYIDNMNNNSVDYKLKEILQDKKIDIILSDAAVPCIGNKIDDHLNSCELTLSITHFMEQYINIGGTYIVKMYLGSQTNNLKTYLKGMFQLVHTTKPKASRNESREIYLVCKNFLGRKK”, the “soluble on expression in E. coli” value was “soluble”.
For “PAQDYRCQLSRNYGKGSGSFTNYYYDKATSSCKTFRYRGSGGNGNRFKTLEDCEATCVTAE”, the “soluble on expression in E. coli” value was “soluble”.
In the case of “PDLAQKAANLTQEELAGLLYDSLYTKILPLSDDIIVYPAHGAGSACGKNMMQETVDSLGNQKRVNYALNQPGKEAFIASVIEGLLPPPAYFGGNVAMNKMGYDSIDNVMERGLSALSATDFEAIAKTSDALVLDTRAPGVFAQGFIPRSINIGLDGDFAPWVGTMIVDVKQPLLLVADPGREQEVITRLSRVGFDQVLGYLDGGFDTWNASGKEIDHVECITANEFAERFCPEESLVFDVRKESEYAAEHVEGAYSRPLAYINDWIQDIPRDRHFYLHCIGGYRSMIASSILLSRGYRNFTDIEGGFASIAQTGVPKTDYVCQSKVSKK”, the “soluble on expression in E. coli” value is reported as “not soluble”.
For “PDVDGMITLKVDNLTYRTSPDSLRRVFEKYGRVGDVYIPREPHTKAPRGFAFVRFHDRRDAQDAEAAMDGAELDGRELRVQVARYGRRDL”, the “soluble on expression in E. coli” value was “soluble”.
For “PERESVRHKQPKSKEKKNAEKHIPHGIKCFVHAPEKYEWRWMGDEYVHALTPNVLEMVECLKANGIRLHTAGITVGMQKGKDLVPAPALALSTEMDDHSFFDMEFSRDEALSYLARQSVTTMPDLPLGFVLATFRRRPLGFLKNLGTRANNLYPQDWRIRNLETSEDCMEAKD”, the “soluble on expression in E. coli” value was “not soluble”.
In the case of “PFEGNRVDIYTGGYSKLQALLRELQKARLHIHMEYYIFEDDPVGRLVRDVLIEKAREGVEVRVIYDDVGCWHVPHRFFEEMRDAGIEVRSFLKVRFPLFTSKVNYRNHRKIVVIDGRIGFIGGMNLAERYMRGFSWGIWRDTHILLEGKAVHGLQTAFLLDWYFVDRTLITASRYFPKIEAYGNSLVQIVTSEP”, the “soluble on expression in E. coli” value is reported as “not soluble”.
With “PGPPQGPPQPVQQSKRLQQTQAQVEEVVDIMRVNVDKVLERDSKISELDDRADALQAGASQFEASAGKLKRKFWWKNCKM” the “soluble on expression in E. coli” value was “soluble”.
For “PGTESTFSNCYALNVEVVSLDSGDQAVLGGFVGQVSANFIAKHCYVSAKVTGGKNPGAFVGMTADESMNCKYDGCFYNNEQNP”, the “soluble on expression in E. coli” value was “not soluble”.
For “PGYLNDIPRHGMFVKDLILLVNDTAAVAYDPMENECYLTALAEQIPRNHSSIVTQQNQVYVVGGLYVDEENKDQPLQSYFFQLDNVSSEWVGLPPLPSARCLFGLGEVDDKIYVVAGKDLQTEASLDSVLCYDPVAAKWSEVKNLPIKVYGHNVISHNGMIYCLGGKTDDKKCTNRVFIYNPKKGDWKDLAPMKTPRSMFGVAIHKGKIVIAGGVTEDGLSASVEAFDLKTNKWEVMTEFPQERSSISLVSLAGSLYAIGGFAMIQLESKEFAPTEVNDIWKYEDDKKEWAGMLKEIRYASGASCLATRLNLFKLSKL”, the “soluble on expression in E. coli” value was “soluble”.
